Patent publication US20110086797A1, “CONTROL OF SPORE GERMINATION” (priority 2007, published 2011)

Tested on: B. subtilis peptidoglycan
Assay: Peptidoglycan binding (pelleting with insoluble peptidoglycan, SDS-PAGE/Coomassie)
Set-up: species or system Bacillus subtilis
Conditions: for binding to cell wall (result in words): his6-tagged extracellular domain
Description: Peptidoglycan Binding. The C-terminal fragment of PrkC (His6-PASTABs) composed of residues 357-648 was purified using Ni^2+ affinity chromatography with an E. coli strain carrying pIMS40 that overproduces His6-PASTABs. His6-Yycl composed of residues 31-280 was purified using identical methodology using an E. coli strain carrying pIMS36. His6-AcmA composed of residues 243-439 using an E. coli strain carrying pIMS42 and His6-PASTASa composed of residues 378-644 using an E. coli strain carrying pIMS44 were purified using identical methodology. 50 μg of proteins was separately incubated with purified B. subtilis or S. aureus peptidoglycan (˜5 mg) in 20 mM Tris-HCl, 50 mM MgCl2, 500 mM NaCl for 30 min at 4° C. Centrifugation (10 min, 15 k) was employed to remove the supernatant (soluble fraction) and the pellet was washed twice, then resuspended it in 2% SDS and incubated at RT for 1 h. Bound fraction (insoluble fraction) was recovered by removing the […] by centrifugation. Fractions consisting of unbound soluble protein and insoluble bound protein, and the wash were analyzed by SDS-PAGE. The gels were stained with Coomassie blue and the differences in the amounts of His6-PASTA in the two fractions were determined by measurement of the appropriate bands using ImageJ (NIH).

B1: His6-PASTABs: His-tagged C-terminal extracellular fragment of B. subtilis PrkC, residues 357-648, three PASTA repeats (protein)
chain: MLIGKRISGRYQILRVIGGGGMANVYLAEDIILDREVAIKILRFDYANDNEFIRRFRREAQSASSLDHPNIVSIYDLGEEDDIYYIVMEYVEGMTLKEYITANGPLHPKEALNIMEQIVSAIAHAHQNQIVHRDIKPHNILIDHMGNIKVTDFGIATALSSTTITHTNSVLGSVHYLSPEQARGGLATKKSDIYALGIVLFELLTGRIPFDGESAVSIALKHLQAETPSAKRWNPSVPQSVENIILKATAKDPFHRYETAEDMEADIKTAFDADRLNEKRFTIQEDEEMTKAIPIIKDEELAKAAGEKEAEVTTAQENKTKKNGKRKKWPWVLLTICLVFITAGILAVTVFPSLFMPKDVKIPDVSGMEYEKAAGLLEKEGLQVDSEVLEISDEKIEEGLMVKTDPKADTTVKEGATVTLYKSTGKAKTEIGDVTGQTVDQAKKALKDQGFNHVTVNEVNDEKNAGTVIDQNPSAGTELVPSEDQVKLTVSIGPEDITLRDLKTYSKEAASGYLEDNGLKLVEKEAYSDDVPEGQVVKQKPAAGTAVKPGNEVEVTFSLGPEKKPAKTVKEKVKIPYEPENEGDELQVQIAVDDADHSISDTYEEFKIKEPTERTIELKIEPGQKGYYQVMVNNKVVSYKTIEYPKDE
% of total protein associated with the insoluble (peptidoglycan-bound) fraction (50 μg protein, ˜5 mg purified peptidoglycan): Approximately 40%
binding to cell wall (result in words): binds to cell wall much better than Yycl
binding to cell wall (result in words) (listed as extracellular domain of PrkC): bound to cell wall much better than a control protein
